This is an account of results in PMC10872949.

For orientation: Ki means the dissociation constant of the complex between target and ligand, obtained from inhibition or displacement.

What all share (assay): enzyme inhibition assay
Test [1] concerns the target Recombinant human cathepsin S (human) (UniProt P25774).
In test [2] the target is Recombinant human cathepsin L (human) (UniProt P07711).
For test [3], the target named is Recombinant human cathepsin S (human) (UniProt P25774). This is another data set of the same source.

Like-named read-outs stand apart in the source and are kept apart here.

Chain of UniProt P25774 (P25774 17-331): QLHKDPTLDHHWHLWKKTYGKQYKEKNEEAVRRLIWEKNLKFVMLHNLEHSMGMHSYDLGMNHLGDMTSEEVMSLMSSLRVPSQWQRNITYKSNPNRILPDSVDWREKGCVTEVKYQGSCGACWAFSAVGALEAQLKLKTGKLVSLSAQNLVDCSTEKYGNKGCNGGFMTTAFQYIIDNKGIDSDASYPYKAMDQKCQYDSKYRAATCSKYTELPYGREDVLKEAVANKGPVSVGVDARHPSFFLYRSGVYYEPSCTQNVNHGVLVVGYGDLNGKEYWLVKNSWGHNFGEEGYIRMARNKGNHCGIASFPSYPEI
Chain of UniProt P07711 (P07711 18-333): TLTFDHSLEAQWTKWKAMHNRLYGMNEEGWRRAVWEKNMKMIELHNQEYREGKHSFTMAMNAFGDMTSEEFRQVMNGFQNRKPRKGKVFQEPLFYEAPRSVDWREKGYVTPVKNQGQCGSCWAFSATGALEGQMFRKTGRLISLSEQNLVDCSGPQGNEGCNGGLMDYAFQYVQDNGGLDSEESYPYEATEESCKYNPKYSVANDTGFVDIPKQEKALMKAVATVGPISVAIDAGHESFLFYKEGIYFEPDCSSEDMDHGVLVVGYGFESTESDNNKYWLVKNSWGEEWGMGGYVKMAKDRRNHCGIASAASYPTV

“Her-HC-CTSSpp IgG (from UniProt P25774 17-113) (antibody)”: the inhibition constant Ki in test [1] stood at 6.03 nM; in test [2] it was 49.3 nM.
Turning to “Syn-LC-CTSSpp Fab (from UniProt P25774 17-113)”, the Ki came to 2.21 nM in test [3], 2.12 nM in test [1] and 24.5 nM in test [2].
